The record followed here is US20080261241A1, “Targeted ubiquitination of proteins and screening methods using a new class of ubiquitin ligase proteins” (INSTITUT PASTEUR, priority 2007, published 2008).

One test addresses T1, PKN1 (Homo sapiens, UniProt Q16512).
T1 construct: purchased Invitrogen
Kind of test: In vitro ubiquitination of PKN1. The test is classed as biochemical, mammalian. Particulars: GST-PKN1, E1, native ubiquitin, UbcH5B; anti-PKN1 antibodies. How it is done: To test whether SspH1 shares activities with IpaH9.8, a GST-SspH1 recombinant protein was purified. […] Ubiquitination of PKN1 by SspH1; SspH1, IpaH9.8, or IpaH9.8-C337A was incubated with E1, native ubiquitin, UbcH5B, and GST-PKN1 was tested.
(§1) Reactions were incubated at 37° C. for 1 h and stopped by the addition of an equal volume of Laemmli sample buffer (62.5 mM Tris-Hcl, pH 6.8, 10% glycerol, 2% SDS, 0.0005% bromophenol blue) containing, or not, 100 mM DTT. Ubiquitination reactions were carried out in the same manner except that 2 μg of HA-tagged ubiquitin, ubiquitin, ubiquitin-48R or […] were used instead of biotinylated ubiquitin. […] Reaction mixtures were separated by SDS/PAGE, transferred onto a nitrocellulose membrane and probed with specific antibodies or peroxidase-coupled streptavidin when biotinylated ubiquitin was used.

Test [1] concerns pheromone response pathway downstream of Ste4. As to the kind of experiment: Growth arrest by overproduction of Ste4. It is filed as cell-based, Saccharomyces cerevisiae.
A further test relates to MAPKK Ste7. As to the kind of experiment: Immunoblot of Ste7 amount in yeast. The test is classed as cell-based, Saccharomyces cerevisiae.
A further test addresses T2, ubiquitin (Homo sapiens, UniProt P0CG47).
T2 construct: UbcH7, E1, ubiquitin, HA-ubiquitin, biotinylated ubiquitin, ubiquitin-K48R and -K63R; purchased Boston Biochem
As to the kind of experiment: In vitro autoubiquitination. Particulars: E1, UbcH5B. The test is classed as biochemical. How it is done:
The amide linkage, but not the thioesther linkage, of ubiquitin to ubiquitinated proteins is resistant to dithiothreitol (DTT).
(§2) Thus, IpaH9.8 is an E3 ubiquitin ligase for Ste7; the proteasome-dependent disappearance of Ste7 in yeast was likely due to the degradation of Ste7 following its polyubiquitination by IpaH9.8 and IpaH7.8.
as §1

Another test has as its target T3, Ste7 (Saccharomyces cerevisiae, UniProt P06784).
T3 construct: made in house
T3 sequence (P06784 1-515): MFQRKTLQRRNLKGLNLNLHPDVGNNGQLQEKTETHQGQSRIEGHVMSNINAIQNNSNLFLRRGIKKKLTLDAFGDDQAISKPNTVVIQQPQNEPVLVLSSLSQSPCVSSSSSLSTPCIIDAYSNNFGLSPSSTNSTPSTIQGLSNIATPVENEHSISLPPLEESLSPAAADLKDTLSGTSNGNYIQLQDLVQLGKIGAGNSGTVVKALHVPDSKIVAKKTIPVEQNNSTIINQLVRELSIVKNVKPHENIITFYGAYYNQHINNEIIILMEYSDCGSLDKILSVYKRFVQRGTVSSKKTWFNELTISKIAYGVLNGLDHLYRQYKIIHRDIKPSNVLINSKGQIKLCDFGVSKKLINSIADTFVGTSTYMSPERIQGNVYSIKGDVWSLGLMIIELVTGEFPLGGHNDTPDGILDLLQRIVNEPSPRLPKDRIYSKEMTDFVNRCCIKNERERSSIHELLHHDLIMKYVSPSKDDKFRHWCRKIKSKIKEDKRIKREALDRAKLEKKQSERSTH
As to the kind of experiment: In vitro ubiquitination of Ste7. It is filed as biochemical. The settings on record: Ste7, Ste11-4, Kss1 complexes, native ubiquitin, E1, UbcH5B; anti-Ste7 antibodies. On the procedure:
as §2, §1

The subject of test [2] is pheromone response MAPK pathway. As to the kind of experiment: Pheromone-responsive FUS1-lacZ reporter (β-galactosidase). It is filed as cell-based, Saccharomyces cerevisiae. The settings on record: wild-type yeast, exposure to α-factor. An excerpt: (§3) To gain insight to IpaH9.8 activity, Saccharomyces cerevisiae was employed as a surrogate model. […] Detection of mating pheromone by a G protein-coupled receptor activates an archetypal MAPK signalling cascade, inducing both arrest of the cell cycle and transcription of mating genes. The pheromone α-factor diffusing from a disk causes cell cycle arrest in […] cells, resulting in a halo of inhibited growth (Hoffman et al., 2002).
Invasive wild-type Shigella flexneri 5 M90T-Sm (Allaoui et al., 1992) and its mxiE derivative SF1060 (Mavris et al., 2002) were used for infection. Plasmids were propagated in Escherichia coli DH5α (end A1 hsdR17 sup E44 thi1 recA1 gyrA relA1 lacZYA-argF). To create JRY101, the integrating plasmid pFC23 (O'Rourke and Herskowitz, 1998) containing a FUS-lacZ transcriptional fusion was digested with SphI and transformed into BY4741; Leu+ colonies were tested for pheromone-responsive β-galactosidase production. JRY100 was constructed by PCR-mediated gene disruption in strain BY4741, replacing the entire open reading frame of UBP3 by the Nat marker, as described (Goldstein and McCusker, 1999; Longtine et al., 1998); the gene replacement was confirmed by PCR.
Standard media and techniques were used for transformation, maintenance, and growth of yeast (Guthrie C, 1991). […]

The target in a further test is T4, UbcH5B (Homo sapiens, UniProt P62837).
T4 construct: His; made in house
T4 sequence (P62837 whole entry): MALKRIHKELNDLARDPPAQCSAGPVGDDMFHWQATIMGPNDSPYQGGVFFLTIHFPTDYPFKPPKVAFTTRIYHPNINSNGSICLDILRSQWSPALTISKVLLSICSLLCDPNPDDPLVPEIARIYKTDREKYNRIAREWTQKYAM
Kind of test: In vitro removal of ubiquitin from ubiquitinated E2. The settings on record: biotinylated ubiquitin, E1, UbcH5B. The test is classed as biochemical. On the procedure: The observation that the degradation of Ste7 promoted by IpaH9.8 is proteasome-dependent led us to test in vitro if IpaH9.8 might be involved in an ubiquitination pathway. It was discovered that the E2 enzyme UbcH5B was apparently not ubiquitinated by E1 in the presence of GST-IpaH9.8 (FIG. 2B).
as §1

Test [3] has as its system pheromone response pathway at or downstream of Ste11. Kind of test: FUS1-HIS3 reporter growth of strain SY2625 with Ste11-4. It is filed as cell-based, Saccharomyces cerevisiae. The settings on record: SY2625 with plasmid encoding Ste11-4; medium lacking histidine with 3-amino triazole. The text has this: To identify the target of IpaH9.8, yeast strains were used that were altered in the signalling cascade. […] The constitutively active variant of the MAPKKK Ste11 encoded by the allele STE11-4 promotes elevated transcription of pheromone responsive genes, even in the absence of pheromone (Stevenson et al., 1992). Growth of the strain SY2625 harbouring a FUS1-HIS3 pheromone-inducible reporter is dependent on signalling through the pheromone response pathway on a medium lacking histidine and containing 3-amino triazole (Evangelista et al., 1997). SY2625 containing a plasmid encoding Ste11-4, but not those containing the vector, were His^+, consistent with activation of the pathway by Ste11-4 and transcription of FUS1-HIS3. […] Upon phosphorylation by Ste11, Ste7 is ubiquitinated and, following removal of ubiquitin chains by the specific deubiquitinase Ubp3, is degraded by the proteasome (Wang et al., 2003).

The test system of test [4] is pheromone response MAPK pathway. Kind of test: Halo assay with α-factor disk. It is filed as cell-based, Saccharomyces cerevisiae. The settings on record: wild-type yeast, exposure to α-factor.
Text: as §3
Standard media and techniques were used for transformation, maintenance, and growth of yeast (Guthrie C, 1991). Halo assays were performed as described (Hoffman et al., 2002) using disks impregnated with 15 μg of α-factor. erg6 ? yeast were transformed with plasmids encoding IpaH9.8 or IpaH9.8-C337A and grown in selective media containing 1% raffinose to mid log phase. Following addition of MG132 (100 μM) and galactose (2%), cultures were incubated for 2 h and cell extracts were prepared as described (Wang et al., 2003). β-Galactosidase assays were performed as described (Guarente, 1983).

The next test relates to sst2Δ cells. As to the kind of experiment: Growth of sst2Δ yeast in the presence of pheromone. The test is classed as cell-based, Saccharomyces cerevisiae. The settings on record: galactose-induced production, α-factor plates.
Test [5] relates to HA-tagged ubiquitin. As to the kind of experiment: In vitro polyubiquitination of ubiquitin. It is filed as biochemical. Particulars: K48R and K63R ubiquitin variants. On the procedure: (§4) Ubiquitin biotinylated on Lys residues can not support polyubiquitination reactions. To test if IpaH9.8 could polyubiquitinate proteins, reactions were performed using HA-tagged ubiquitin, instead of biotinylated ubiquitin.
as §1

Test [6] has as its target T5, HA-tagged ubiquitin (Homo sapiens, UniProt P0CG47).
T5 construct: multiples of the size of HA-ubiquitin (9 kDa); purchased Boston Biochem
As to the kind of experiment: In vitro polyubiquitination of ubiquitin. It is filed as biochemical. The settings on record: HA-ubiquitin, E1, UbcH5B; anti-HA antibodies. On the procedure: as §4, §1

T1 sequence (Q16512 whole entry): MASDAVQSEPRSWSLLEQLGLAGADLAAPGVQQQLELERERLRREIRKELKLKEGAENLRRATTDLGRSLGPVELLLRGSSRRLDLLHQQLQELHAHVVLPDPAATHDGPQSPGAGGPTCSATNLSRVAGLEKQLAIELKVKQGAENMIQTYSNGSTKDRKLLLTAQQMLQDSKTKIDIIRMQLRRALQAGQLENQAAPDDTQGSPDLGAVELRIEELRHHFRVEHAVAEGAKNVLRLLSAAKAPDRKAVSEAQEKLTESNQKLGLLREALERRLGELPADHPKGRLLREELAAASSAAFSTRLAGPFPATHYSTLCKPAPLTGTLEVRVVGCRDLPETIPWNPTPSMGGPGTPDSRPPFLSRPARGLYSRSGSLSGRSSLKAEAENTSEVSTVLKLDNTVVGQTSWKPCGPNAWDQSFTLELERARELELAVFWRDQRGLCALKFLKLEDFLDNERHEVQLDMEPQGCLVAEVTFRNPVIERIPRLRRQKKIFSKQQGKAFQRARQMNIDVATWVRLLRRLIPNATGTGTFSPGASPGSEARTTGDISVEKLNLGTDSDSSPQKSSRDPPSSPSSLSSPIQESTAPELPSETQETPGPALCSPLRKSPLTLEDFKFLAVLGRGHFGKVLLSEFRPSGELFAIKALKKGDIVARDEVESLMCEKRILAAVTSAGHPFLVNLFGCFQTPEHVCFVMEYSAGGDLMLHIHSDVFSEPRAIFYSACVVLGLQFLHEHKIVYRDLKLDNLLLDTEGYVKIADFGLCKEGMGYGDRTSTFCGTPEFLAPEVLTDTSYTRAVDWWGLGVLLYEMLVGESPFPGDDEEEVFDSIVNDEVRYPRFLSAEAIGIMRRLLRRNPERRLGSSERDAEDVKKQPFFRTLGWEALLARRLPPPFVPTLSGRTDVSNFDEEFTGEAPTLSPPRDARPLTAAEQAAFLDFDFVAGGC

B1: SspH1: Salmonella enterica Typhimurium homologue of IpaH, type III secretion effector; GST-SspH1 recombinant protein (protein)
chain: EFMLPINNNFSLPQNSFYNTISGTYADYFSAWDKWEKQALPGEERDEAVSRLKECLINNSDELRLDRLNLSSLPDNLPAQITLLNVSYNQLTNLPELPVTLKKLYSASNKLSELPVLPPALESLQVQHNELENLPALPDSLLTMNISYNEIVSLPSLPQALKNLRATRNFLTELPAFSEGNNPVVREYFFDRNQISHIPESILNLRNECSIHISDNPLSSHALQALQRLTSSPDYHGPRIYFSMSDGQQNTLHRPLADAVTAWFPENKQSDVSQIWHAFEHEEHANTFSAFLDRLSDTVSARNTSGFREQVAAWLEKLSASAELRQQSFAVAADATESCEDRVALTWNNLRKTLLVHQASEGLFDNDTGALLSLGREMFRLEILEDIARDKVRTLHFVDEIEVYLAFQTMLAEKLQLSTAVKEMRFYGVSGVTANDLRTAEAMVRSREENEFTDWFSLWGPWHAVLKRTEADRWAQAEEQKYEMLENEYPQRVADRLKASGLSGDADAEREAGAQVMRETEQQIYRQLTDEVLALRLFENGSQLHHS
modifications: left off: a dimerising Fc or GST
For B1, the “ubiquitination of PKN1” value with PKN1 is on record as “detected an additional species migrating at a size >250 kDa”.

B2: IpaH9.8: Shigella flexneri type III secretion effector protein (SEQ ID NO: 4), E3 ubiquitin ligase; used FLAG-tagged in yeast, GST-fused in vitro (protein, listed as Shigella flexneri)
chain: MLPINNNFSLPQNSFYNTISGTYADYFSAWDKWEKQALPGEERDEAVSRLKECLINNSDELRLDRLNLSSLPDNLPAQITLLNVSYNQLTNLPELPVTLKKLYSASNKLSELPVLPPALESLQVQHNELENLPALPDSLLTMNISYNEIVSLPSLPQALKNLRATRNFLTELPAFSEGNNPVVREYFFDRNQISHIPESILNLRNECSIHISDNPLSSHALQALQRLTSSPDYHGPRIYFSMSDGQQNTLHRPLADAVTAWFPENKQSDVSQIWHAFEHEEHANTFSAFLDRLSDTVSARNTSGFREQVAAWLEKLSASAELRQQSFAVAADATESCEDRVALTWNNLRKTLLVHQASEGLFDNDTGALLSLGREMFRLEILEDIARDKVRTLHFVDEIEVYLAFQTMLAEKLQLSTAVKEMRFYGVSGVTANDLRTAEAMVRSREENEFTDWFSLWGPWHAVLKRTEADRWAQAEEQKYEMLENEYPQRVADRLKASGLSGDADAEREAGAQVMRETEQQIYRQLTDEVLALRLSENGSQLHHS
modifications: FLAG tag or GST fusion
notes: used FLAG-tagged in yeast, GST-fused in vitro
With B2, in test [1], the “rescue of growth arrest” value is recorded as “rescued this phenotype”. Further, the “disappearance of Ste7” value in the test on MAPKK Ste7 (ubp3Δ and ste11Δ cells) is listed as “still resulted in the disappearance of Ste7”. Moreover, in the test on MAPKK Ste7 (wild-type yeast, regardless of stimulation by α-factor), the “amount of Ste7” value was “drastically reduced”. Besides, the “autoubiquitination (DTT-resistant ubiquitinated protein)” value in the test with ubiquitin (biotinylated ubiquitin) is reported as “a DTT-resistant ubiquitinated protein of the size of GST-IpaH9.8 (FIG. 3) was detected”. Further, the “autoubiquitination (anti-IpaH antibodies)” value with ubiquitin (native ubiquitin, MAPK complexes) was “Both the non- and mono-ubiquitinated forms of IpaH9.8 were detected”. For the same molecule, the “ubiquitination of Ste7” value in the test with Ste7 is recorded as “larger species that formed only in the presence of IpaH9.8 were detected”. Moreover, the “expression of FUS1-lacZ reporter gene” value in test [2] was “failed to form a halo and to induce expression”. Moreover, the “removal of ubiquitin from ubiquitinated UbcH5B” value in the test with UbcH5B is recorded as “promoted the removal of ubiquitin from UbcH5B”. Besides, in test [3], the “His phenotype (FUS1-HIS3 reporter)” value was “His^−”. In addition, the “halo of inhibited growth” value in test [4] was “failed to form a halo”. Also, the “growth of sst2Δ cells in the presence of pheromone” value in the test with sst2Δ cells is “allowed sst2Δ cells to grow in the presence of pheromone”. The “linkage of polyubiquitin chains” value in the test on HA-tagged ubiquitin [5] is listed as “catalyzed the formation of polyubiquitin chains on Lys-48, but not Lys-63”. The “polyubiquitination of HA-tagged ubiquitin” value with HA-tagged ubiquitin [6] is “detected a ladder of ubiquitinated proteins”.
